Measured values reported in patent publication US11078245B2, “Colon and pancreas cancer peptidomimetics” (PRECISION BIOLOGICS, INC., priority 2010, dated 2021).
Several values for one entry are separate records, joined by “and”; a condition that tells them apart may be missing. Identical values can stand only once.

Tests used:
CFPAC-1 Pancreatic = experiment: Flow cytometry tumor cell binding; assay type: cell-based, human
Protocol: (§1) See International Patent Application No. PCT/US2011/41502.
(§2) FACs data showing NEO-101 antibody binding to colon cancer and pancreatic cancer cell lines. Cells were washed and suspended in either 2 μg/ml NEO-101-FITC or isotype control antibody-FITC for 1 hour, washed and then subjected to FACS analysis. Experiments with all cell lines were repeated at least three times. […] DAPI was used to stain the nucleus. […] The staining pattern of these pancreatic and colorectal tumor cells was predominantly membrane-associated, consistent with the expression profile of MUC5AC.

Colo-205 Colorectal = experiment: Flow cytometry tumor cell binding; assay type: cell-based, human
Protocol: as §1, §2

LS174T Colorectal = experiment: Flow cytometry tumor cell binding; assay type: cell-based, human
Protocol: as §1, §2

SW480 Colorectal = experiment: Flow cytometry tumor cell binding; assay type: cell-based, human
Protocol: as §1, §2

[1] = system: Colorectal cancer biopsies; experiment: IHC staining of patient tumor biopsies with NEO-101; assay type: binding, human
Protocol: (§3) Patients enrolled on the clinical diagnostic study agreed to provide their tumor biopsy or surgical specimen to be stained immunohistochemically with NEO-101. Tumor sections were prepared as slides, and two additional slides were prepared for negative control (human IgG1) and positive control (cytokeratin) staining to ensure quality controls for the IHC method. More specifically, tumor biopsy specimens from colorectal and pancreas cancer patients were deparaffinized at about 60° C. for 30 min prior to staining with NEO-101. Subsequently, all staining steps were carried out at about 25° C. Slides (4 μm) were blocked with Peroxo-Bloc® inhibitor (Zymed Laboratories) for about 2 min, rinsed with phosphate-buffered saline (PBS), and blocked with CAS (Zymed) for an additional about 10 minutes. Slides were stained with about 10 μg/mL of biotin-labeled NEO-101 for 1 hour, and washed three times with PBS containing 0.05% Tween®-20 non-ionic detergent. […] A 1:400 dilution of peroxidase-conjugated streptavidin (Dako North America, Inc.) was then applied to the slides for about 30 minutes and slides were washed three times. A solution of DAB (Zymed) was applied for about 2-3 minutes then rinsed with PBS. A solution of hematoxylin was then applied for about 3 minutes and rinsed with tap water until clear. The slides were dehydrated with xylene and a coverslip was added using Permount® mounting medium. Additional consecutive slides were stained with human cytokeratin AE1/AE3 (Abcam plc) as a positive control, and human IgG1 isotype as a negative control (AXXORA, LLC).
(§4) All antibodies were biotinylated prior to use and tested independently at various concentrations using human tumor tissues known to react with the antibodies. Primary antibody (NEO-101) was used at about 10 μg/mL, detected with streptavidin-horseradish peroxidase conjugate, and mounted on slides. A positive staining scale ranging from +1 to +5 was applied to the staining results, measured by light microscopy. Tissues stained with NEO-101 were considered positive (+1 to +5) for an average of 79% of the patient tumor samples (30 of 38 of both colorectal and pancreatic cancer biopsies) including the 5 pancreatic tumor samples. Tissues that were negative or considered weak staining by the immunohistochemist were considered negative. These staining results are similar to results from several other studies completed with antibodies using tissue array slides, and both frozen and paraffin-embedded surgical specimens.

[2] = system: Pancreatic cancer biopsies; experiment: as above; assay type: binding, human
Protocol: as §3, §4

[3] = system: colorectal and pancreatic cancer biopsies; experiment: as above; assay type: binding, human; conditions: colorectal and pancreatic biopsies together
Protocol: Patients enrolled on the clinical diagnostic study agreed to provide their tumor biopsy or surgical specimen to be stained immunohistochemically with NEO-101. Tumor sections were prepared as slides, and two additional slides were prepared for negative control (human IgG1) and positive control (cytokeratin) staining to ensure quality controls for the IHC method. More specifically, tumor biopsy specimens from colorectal and pancreas cancer patients were deparaffinized at about 60° C. for 30 min prior to staining with NEO-101. Subsequently, all staining steps were carried out at about 25° C. Slides (4 μm) were blocked with Peroxo-Bloc® inhibitor (Zymed Laboratories) for about 2 min, rinsed with phosphate-buffered saline (PBS), and blocked with CAS (Zymed) for an additional about 10 minutes. Slides were stained with about 10 μg/mL of biotin-labeled NEO-101 for 1 hour, and washed three times with PBS containing 0.05% Tween®-20 non-ionic detergent. […]
All antibodies were biotinylated prior to use and tested independently at various concentrations using human tumor tissues known to react with the antibodies. Primary antibody (NEO-101) was used at about 10 μg/mL, detected with streptavidin-horseradish peroxidase conjugate, and mounted on slides. A positive staining scale ranging from +1 to +5 was applied to the staining results, measured by light microscopy. […]

DU145 (Prostate) = experiment: ADCC 4-hour 111-Indium release assay; assay type: cell-based, human
[4] = Preliminary non-GLP toxicity study; assay type: in vivo, BALB/c mice
Protocol: A preliminary non-GLP toxicity study using a research-grade preparation of NEO-101 was also conducted. Normal BALB/c mice were Injected with a single IV dose of saline, or 3, 10, 30, or 100 mg/kg of NEO-101 (n=3 female mice per group). In-life parameters measured included body weights and clinical observations. Mice were humanely sacrificed 72 hours following the injection and specimens were collected for analysis. Post-mortem parameters included macroscopic examination, blood cell counts, serum chemistries, and histopathological evaluation of selected major organs and tissues. […] No other toxicities were detected in these studies potentially associated with NEO-101, including during histopathological examination of the major organ systems in these mice.

lung tumor tissue = experiment: Immunohistochemistry of lung tumor tissue; assay type: binding; conditions: 10 μg/ml biotinylated antibody
Protocol: Slides were deparaffinized, rehydrated and antigen retrieval was performed. Slides were then stained with 10 μg/ml biotinylated NEO-101 antibody and then streptavidin-HRP was applied for color development. Slides were counter stained with H.E., hydrated and fixed. The results
The specificity of NEO-101 for pancreatic and colorectal tumor tissue was further shown by staining lung tumor tissue. While there was significant binding to these tissues with a commercial antibody that recognizes normal MUC5AC, there was no reactivity of NEO-101 with these lung tumor tissues.

[5] = system: colorectal cancer cell line LS174T; experiment: Immunofluorescence with FITC labeled NEO-101; assay type: cell-based; conditions: 2 μg/ml FITC labeled antibody
Protocol: as §2

[6] = system: pancreatic cancer cell line AsPC-1; experiment: Immunofluorescence with FITC labeled NEO-101; assay type: cell-based; conditions: 2 μg/ml FITC labeled antibody
Protocol: as §2

[7] = system: lung cancer cell line A549; experiment: Immunofluorescence with FITC labeled NEO-101; assay type: cell-based, human; conditions: 2 μg/ml FITC labeled antibody
[8] = normal BALB/c mice
Protocol: Mouse anti-NEO-101 antibody (MAHA) responses were also measured in this study (CB08-5110). The analysis employed an ELISA based assay to detect NEO-101-specific antibodies in mouse serum.

B1: NEO-101: Chimeric NEO-101 antibody, engineered in CHO-DG44 production cell clone 4B7; targets a variant of MUC5AC (protein)
light: QVVLTQSPVIMSASPGEKVTMTCSASSSISYMYWYQQKPGTSPKRWIYDTSKLASGVPARFSGSGSGTSYSLTISNMEAGDAATYYCHQRDSYPWTFGGGTNLEIK
heavy: QVQLKESGPDLVAPSQSLSITCTVSGFSLSKFGVNWVRQPPGKGLEWLGVIWGDGSTSYNSGLISRLSISKENSKSQVFLKLNSLQADDTATYYCVKPGGDYWGHGTSVTVSS
In the case of B1, the “% Cells Stained” value (CFPAC-1 Pancreatic; CFPAC-1) is reported as 52.56%, the mfi (CFPAC-1 Pancreatic; CFPAC-1) is reported as 59 and the Percent positive (CFPAC-1 Pancreatic; CFPAC, 2 μg/ml FITC antibody, FACS) is reported as 52.56%. For the same molecule, the “% Cells Stained” value (Colo-205 Colorectal) was 94.67%, the mfi (Colo-205 Colorectal) was 175 and the Percent positive (Colo-205 Colorectal; 2 μg/ml FITC antibody, FACS) was 94.67%. For the same molecule, the Percent positive (LS174T Colorectal; LS174, 2 μg/ml FITC antibody, FACS) was 89.72%, the “% Cells Stained” value (LS174T Colorectal; LS174T) was 89.72% and the mfi (LS174T Colorectal; LS174T) was 103. The “% Cells Stained” value (SW480 Colorectal) was 58.98%, the mfi (SW480 Colorectal) was 118 and the Percent positive (SW480 Colorectal; 2 μg/ml FITC antibody, FACS) was 58.98%. The “% Positive by IHC with NEO-1O1” value [1] was 76%, the “Positive by IHC, subjects/total” value [1] was “(25/33)” and the “% Positive by IHC with NEO-1O1” value [2] was 100%. For the same molecule, the “Positive by IHC, subjects/total” value [2] was “(5/5)”, the “patient tumor samples considered positive (+1 to +5)” value [3] was 79% and the “patient tumor samples considered positive, samples/total” value [3] was 30 of 38 and 30/38. The “% Specific Killing (±SEM)” value (DU145 (Prostate); Effector:Target 12.5:1) was −0.3 ± 0.1%, the “% Specific Killing (±SEM)” value (DU145 (Prostate); Effector:Target 25:1) was 0.3 ± 0.8% and the “% Specific Killing (±SEM)” value (DU145 (Prostate); Effector:Target 50:1) was −0.5 ± 0.3%. For the same molecule, the “serum aspartate transaminase (AST)” value ([4]; 2 out of 3 mice that received 100 mg/kg) was “mild, but statistically insignificant elevation”, the “body weight, blood cell counts, and histopathology of 7 major organs and tissues” value ([4]; single IV dose 3, 10, 30 or 100 mg/kg, 72 hours) was “no significant changes” and the “reactivity with lung tumor tissues” value (lung tumor tissue) was “no reactivity”. The binding by immunofluorescence [5] was “binds”, the binding by immunofluorescence [6] was “binds” and the binding by immunofluorescence [7] was “does not bind”. The “immunogenicity (MAHA response)” value [8] was “only mildly immunogenic”.
